Experimental data from article PMC7929516, “Hallmarks of Alpha- and Betacoronavirus non-structural protein 7+8 complexes” (Science Advances, 2021).

Experiments:
[1] = molecular target: HCoV-229E nsp7-8-His6 precursor (HCoV-229E); assay: native MS
[2] = molecular target: SARS-CoV nsp7-8-His6 precursor (SARS-CoV (strain Frankfurt-1)); assay: native MS
[3] = molecular target: PEDV nsp7-8-His6 precursor (PEDV (strain CV777))
[4] = molecular target: SARS-CoV-2 nsp7-8-His6 precursor (SARS-CoV-2); assay: native MS
native MS = molecular target: the molecule itself; assay: native MS

HCoV-229E nsp7-8-His6 precursor (domain or fragment)
stoichiometry N [1]: 2

SARS-CoV nsp7-8-His6 precursor (domain or fragment)
stoichiometry N [2]: 2

PEDV nsp7-8-His6 precursor (domain or fragment)
stoichiometry N [3]: 2

SARS-CoV-2 nsp7-8-His6 precursor (domain or fragment)
stoichiometry N [4]: 2

B1: FIPV nsp7 (natural protein)
chain: SKLTEMKCTNVVLLGLLSKMHVESNSKEWNYCVGLHNEINLCDDPDAVLEKLLALIAFFLSKHNTCDLSDLIESYFENTTILQ
notes: also called feline CoV nsp7
stoichiometry N (native MS): 2

B2: TGEV nsp7 (natural protein)
chain: SKLTEMKCTNVVLLGLLSKMHVESNSKEWNYCVGLHNEINLCDDPEIVLEKLLALIAFFLSKHNTCDLSELIESYFENTTILQ
stoichiometry N (native MS): 2

B3: HCoV-229E nsp7 (natural protein)
chain: SKLTDLKCTNVVLMGILSNMNIASNSKEWAYCVEMHNKINLCDDPETAQELLLALLAFFLSKHSDFGLGDLVDSYFENDSILQ
stoichiometry N (native MS): 2

B4: PEDV nsp7 (natural protein)
chain: SKLTDIKCSNVVLLGCLSSMNVSANSTEWAYCVDLHNKINLCNDPEKAQEMLLALLAFFLSKNSAFGLDDLLESYFNDNSMLQ
stoichiometry N (native MS): 2

B5: MERS-CoV nsp7 (natural protein)
chain: SKLTDLKCTSVVLLSVLQQLHLEANSRAWAFCVKCHNDILAATDPSEAFEKFVSLFATLMTFSGNVDLDALASDIFDTPSVLQ
stoichiometry N (native MS): 2
